Data: article PMC3252339, “Human PAPS Synthase Isoforms Are Dynamically Regulated Enzymes with Access to Nucleus and Cytoplasm” (PLoS ONE, 2012)
Changes are numbered by the printed parent chain. In names and notes the source's numbering stands.

Target: the molecule itself
Assay: SEC; analytical gel filtration on Superdex 200 10/300 GL in 20 mM Tris (pH 7.3), 180 mM NaCl, 0.1 mM EDTA, 1 mM DTT; loaded at 2-10 µM, at most three-fold diluted during the run; dimer to monomers

B1: PAPS synthase 1 wild type (enzyme, human, UniProt O43252 1-624, looked up)
chain: MEIPGSLCKKVKLSNNAQNWGMQRATNVTYQAHHVSRNKRGQVVGTRGGFRGCTVWLTGLSGAGKTTVSMALEEYLVCHGIPCYTLDGDNIRQGLNKNLGFSPEDREENVRRIAEVAKLFADAGLVCITSFISPYTQDRNNARQIHEGASLPFFEVFVDAPLHVCEQRDVKGLYKKARAGEIKGFTGIDSEYEKPEAPELVLKTDSCDVNDCVQQVVELLQERDIVPVDASYEVKELYVPENKLHLAKTDAETLPALKINKVDMQWVQVLAEGWATPLNGFMREREYLQCLHFDCLLDGGVINLSVPIVLTATHEDKERLDGCTAFALMYEGRRVAILRNPEFFEHRKEERCARQWGTTCKNHPYIKMVMEQGDWLIGGDLQVLDRVYWNDGLDQYRLTPTELKQKFKDMNADAVFAFQLRNPVHNGHALLMQDTHKQLLERGYRRPVLLLHPLGGWTKDDDVPLMWRMKQHAAVLEEGVLNPETTVVAIFPSPMMYAGPTEVQWHCRARMVAGANFYIVGRDPAGMPHPETGKDLYEPSHGAKVLTMAPGLITLEIVPFRVAAYNKKKKRMDYYDSEHHEDFEFISGTRMRKLAREGQKPPEGFMAPKAWTVLTEYYKSLEKA
notes: also called PAPSS1; PAPSS1 wild type; source: E. coli expression strains, purified (GSH sepharose, PreScission digestion, Superdex 200)
- stoichiometry N: 2

B2: PAPS synthase 1 RR111,112AA (enzyme, human, UniProt O43252 1-624, looked up)
chain: B1 chain with R111A, R112A
notes: Same construct as m1 with the double mutation made by site-directed mutagenesis; the oligonucleotides are in Information S1; also called PAPSS1 RR111,112AA; source: E. coli expression strains, purified (GSH sepharose, PreScission digestion, Superdex 200)
- Kd: < 1 µM
- stoichiometry N: 2

B3: PAPS synthase 1 L119K (enzyme, human, UniProt O43252 1-624, looked up)
chain: B1 chain with L119K
notes: Same construct as m1 with the point mutation made by site-directed mutagenesis; the oligonucleotides are in Information S1; also called PAPSS1 L119K; source: E. coli expression strains, purified (GSH sepharose, PreScission digestion, Superdex 200)
- Kd: < 1 µM
- stoichiometry N: 2
